In the nanobody polyreactivity screen of Harvey et al. (2022):

Experiment: yeast display, Sf9 membrane polyspecificity reagent, FACS + sequencing; frameworks hold sequencing errors
In short: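 Polyreactivity labels are assigned by the sorting gate from which each nanobody was recovered. The gates were low and high (top ~1%), set on anti-HA fluorescence for expression and streptavidin fluorescence for reagent binding. Before sorting, galactose-induced (36–48 hours) yeast display cells were stained for 1 hour at 4 °C with 10% biotinylated, detergent-solubilized Sf9 membrane reagent.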

Sequence	polyreactivity (PSR sort gate)
QVQHVQSGGGLVQAGGRHRLSCAASGSTIRYYAMGWYRQAPGTERELVAAISGSGGRTYYADSVKGRFTISRDNAKNTGYLQMNSLKPEDTAVYYCYTRGRRTDNDYWGQGTQLTVSS	high polyreactivity
QVQHVQSGGGLVQAGGSLRLSCAASGRTNPFYAMGWYRQAPGKERELVAAISSSAGRTYYADSVKGRFTISRDNAKNTFYFEMNSLKPEDTAVYYCAARLYGRYRYDYWGQGTQVTVSS	low polyreactivity
QVQIEESGGGLVQERGSLRLSCAAYGRIFDLYAMGWNRQAPGKERELVATISGSGGSTYYADSVKGRFTISRDTAKNTVYLQMNSLKPEDTAVYNCAAVSVSSWYDYWGQGTQVTVSS	low polyreactivity
QVQIVDSGGGLVQAGGRLRLTCAASGSTFYVYTMGWSRQAPGKESELFDRISSGGSTKYADSVKGRFTISRVNANNTVYLQMNILKPEDTAVYYCNADGLYLFGISYGKFLKYGHWGHGTQVTVSS	low polyreactivity
QVQIVDSGGGLVQAGGSLRLSCAASGNIFAWYAMGWYTQAPGQVRELVAAINWSRGSTYYADSVKGRFTISRDNAKNTVYLQMNSLKPEDTAVYYCNAVFQDRTDDYDYWGQGTQVTLSS	low polyreactivity
QVQIVDSGGGVVQAGGILRLSSAASGYTFGSYDMGWYRQEPGKERELVAAISGGGSTNYADSVKGRFTISRDNAKNTVYLQMNCLKPEDTAVYYCAAYPYLYPLRFEEYDHWGQGTQVTVSS	low polyreactivity
QVQIVDSGVGLVQAGGSLRLSCAASGSTFLKNAMGWYRQAPGKERELVAAISYSTTPTYYADSVKGRFTFSRDNAKNTVYLQMNSLKPEDNAVYYCNIASYWGSGFDFWGLGTQVTVSS	low polyreactivity
QVQIVESGAGIVQAGGSLRLSCAASGFIFDIYAMGWYRQAPGKERELVASITWDDGSTYYADSVKGRFTISRDNAKNTVYLQINSLKPEDTAVYYCAADFEAGGYSLDYWGQGTQVTVSS	low polyreactivity
QVQIVESGAGLVQAGGSLRISCAPSGLTFGYYAMGWYRQAPGKERELVAAISSSGVNTYYADSVKGRFTISRDNAKNTVYLQMNSLKPEDTAVYYCNTVPKPWYSWKYAYDYWGHGTQVTVSS	high polyreactivity
QVQIVESGAGLVQAGGSLSLSCDASGFIFVWYAMGWYRQAPGKERELVAAISWTGGSTYYADSVKGRFTISRDNAKNTVYLQINSLKPEDTAVYYCAATYEFYPEELDYWGQGTQVTVSS	low polyreactivity
QVQIVESGGGIVQAGGSLRLSSAASGSTFSFYVMGWYRHAPGKEREWVAAISWSSVGTYYADSVKGRFTISRDNAKNTVYLQMNSLKPDDTAVYYCAAERYRRVAKHGYWGQGTQVTVSS	high polyreactivity
QVQIVESGGGLVQAAGSLRLSCAASGSTFQTYAMGWYRQAPGKERELVAAITSGGSTNYADSVKGRFTISRDNAKNTVYLQMNSLKPEDTAVSYCAVRQIYQTSDHRLQYDYWGQGTQVTVSS	low polyreactivity
QVQIVESGGGLVQAGGRLRLSCAYSGLIISWYAMGCDIQSPGKERELVAAISGSVGSTYYADPVKGRFTISRDNAKNTVYLQMNSLKPEDTAVYYCAARSKDGGGPMYYWGQGTQVTVSS	high polyreactivity
QVQIVESGGGLVQAGGSHRISCAASGLIFQSNAMGWYRQAPGKESELVAAISTAGSTNYADSVKGRFTISRDNAKNTFYFQMNSLIPQDTAVYYFAAQVSTPYRYPRQMLYDSWGQGTQVTVSS	low polyreactivity
QVQIVESGGGLVQAGGSHRLSCAASGSTFDAYAMGWYRQEPGKEREMVAAISTRGGRTYYADSVKGRFTISRDNAKNTVYLQMNSLKPEDTAVYYCNAVVARVNVRGTPAFDYWGQGTQVTVSS	high polyreactivity
QVQIVESGGGLVQAGGSLPLSSAPSGSIFAPYAMGWYRQAPGKERELVAAINISGGTYYADSVKGRFTISRDNAKNTLYLQMNSLKPEDTAVYYCAARYLYGYYGFDYWGQGTQVTVSS	high polyreactivity

Sequence	polyreactivity (PSR sort gate)
QVQIVESGGGLVQAGGSLRISCAASGRTFRWYAMGWYRQAPGKERELVASITWSGGSTYYADSVKGRFTISRDNAKNSVYLQMNSLKPEDTAVYYCAAEKRYTYVGGPFNYWGQGIQVTVSS	high polyreactivity
QVQIVESGGGLVQAGGSLRLICAASGSTFGLNAMGWYRQAPGKERELVAAITRSDITNYADSVKGRFTISRDNAKNTVYLKLNSLKPEDTAVYYCNKTPDRHRRYFGYGYWGQGTLVTVSS	low polyreactivity
QVQIVESGGGLVQAGGSLRLICAASGYTFTIYAMGWYRQAPGKERELVAAITTIGGRTYYADSVKGRFTISRDNAKNTVYLQMNSLKPEATAVYYCAARARVEGGYRGKFGYWGQGTQLTVSS	high polyreactivity
QVQIVESGGGLVQAGGSLRLRCAASGRIFAYYAMGWYRQAPGKERELVAAISRSGVSTYYADSVKGRFTISRDNAKNTVYLQMNSLKPEDTAVYYCAARWRSGFTSGDYWGQGTQVTVSS	low polyreactivity
QVQIVESGGGLVQAGGSLRLRCAASGRIIYKNAMGWYRQAPGKERELVAAITTSGGSTYYADSVKGRFTISRDNSKNTVYLEMNSLKPEDTAVYYCATRGHYRQTINYWGQGTQVTVSS	high polyreactivity
QVQIVESGGGLVQAGGSLRLSCAASGFIFDNNAMGWSRQAPWKESELFATITSGGRTNYADSVKGRFTISRDNAKNTVYLRMNCLKPEDTAVYYCAAFYYLCSRRKTRDYWGQGTQVTVSS	low polyreactivity
QVQIVESGGGLVQAGGSLRLSCAASGFTFRGYAMGCYRQAPAKERELVAAISRSGGSTNYADSVKGRFTISRDNAKNTVYLKMNSMKPEDTAVYYCAAGWNPYDYWGQGTQVTVSS	high polyreactivity
QVQIVESGGGLVQAGGSLRLSCAASGIFYAMGWYRQAPWTKRELDDAISSVGSTNYADSVKGRFSISRDNAKNTVYLQMNSLKPEDTAVYYCAAYFYTYPVDRYGSYYWGQVTQVTVSS	low polyreactivity
QVQIVESGGGLVQAGGSLRLSCAASGIIFRYYAMGWYRQAPGKERELVAAISSSGVSTYYADSVKGRFTISRDYAKNTVYLQMNSLKPEDTAVYYCAAVTTWRIDYWGQGTQVNVSS	high polyreactivity
QVQIVESGGGLVQAGGSLRLSCAASGITFHDYAMGWDRQEPGQERELVATIRSSTYYADSVKGRFTISRDTAKNTVYLQMNSLKTEDTAVYYCNVRLSYSYISPSDWNFDYWGQGTQVTVSS	low polyreactivity
QVQIVESGGGLVQAGGSLRLSCAASGITFRRNAMGWYRQAPGKERELVAVITSVGTTYYADSVKGRFTISRDNAKNTVYLQMNSLKPEDTAVYYCAARFYWGQGTQVTVSS	high polyreactivity
QVQIVESGGGLVQAGGSLRLSCAASGRIFCGNVMGWYRQAPGKERELVAAISGRGGRTYYAHSVKGRFTISRDNAKNTVYLQMNSLKPEDTAVYYCAASTGEEISGKRYNYWGQGTQVTVSS	high polyreactivity
QVQIVESGGGLVQAGGSLRLSCAASGRIFDSYAMGWYRQAPGKERELVAAISQNSGSTYYADSVKGRFTISRDNEKNTVYLQMNSLKPEDTAVYYCAATRKTKRFGYWGQGTQVTVSS	high polyreactivity
QVQIVESGGGLVQAGGSLRLSCAASGRIFHWYTMGWYRQAPGKERELVAAISGSGGSTHYADSVKGRFTISRDNAKNTVYLQMNSLKPEDTAVYYCAADDGFYGQDLDYWGQGTQVTVSS	low polyreactivity
QVQIVESGGGLVQAGGSLRLSCAASGRIFQPYAMGWYRQATGKERELVAAITRRAGSTYYADSVKGRFTISRDNANNTVYVQMNSLKPEDTAVYYCAARGLYWAYEMEYWGQGTQVTVSS	low polyreactivity
QVQIVESGGGLVQAGGSLRLSCAASGRIFTVYGKGWYRQAPGKERELVAAISWSGGGTYYADSVKGRFTISRDNAQNTVYLQKNSLKPDDTAVYYCNADRQYTWSLVFFSSEYDYWGQGTQVTVSS	low polyreactivity
